Test results as given in publication PMC9706563 (Journal of Medicinal Chemistry, 2022).
Ends that are not written are not given here.

Biological target: T1, PRMT5-MEP50 complex (full-length, purified) (human | , UniProt O14744 1-637; Q9BQA1 1-342)
T1 construct: Protein arginine methyltransferase 5 (PRMT5), human, of the full-length PRMT5-MEP50 complex; MEP50 (WDR77), of the full-length PRMT5-MEP50 complex; also called native PRMT5-MEP50; PRMT5-MEP50 methyltransferase; copies: 4 + 4
Assay: fluorescence polarisation; competitive; tracer fluorescently labeled … (S1) 1 nM, PRMT5-MEP50 600 nM, unlabeled peptide titrated in two-fold dilutions; 50 mM HEPES, 250 mM NaCl, 1 mM TCEP, 0.01% Tween 20, pH 8.0, room temperature
Details: both partners purified

T1 sequence (O14744 whole entry, chain 1 of 2): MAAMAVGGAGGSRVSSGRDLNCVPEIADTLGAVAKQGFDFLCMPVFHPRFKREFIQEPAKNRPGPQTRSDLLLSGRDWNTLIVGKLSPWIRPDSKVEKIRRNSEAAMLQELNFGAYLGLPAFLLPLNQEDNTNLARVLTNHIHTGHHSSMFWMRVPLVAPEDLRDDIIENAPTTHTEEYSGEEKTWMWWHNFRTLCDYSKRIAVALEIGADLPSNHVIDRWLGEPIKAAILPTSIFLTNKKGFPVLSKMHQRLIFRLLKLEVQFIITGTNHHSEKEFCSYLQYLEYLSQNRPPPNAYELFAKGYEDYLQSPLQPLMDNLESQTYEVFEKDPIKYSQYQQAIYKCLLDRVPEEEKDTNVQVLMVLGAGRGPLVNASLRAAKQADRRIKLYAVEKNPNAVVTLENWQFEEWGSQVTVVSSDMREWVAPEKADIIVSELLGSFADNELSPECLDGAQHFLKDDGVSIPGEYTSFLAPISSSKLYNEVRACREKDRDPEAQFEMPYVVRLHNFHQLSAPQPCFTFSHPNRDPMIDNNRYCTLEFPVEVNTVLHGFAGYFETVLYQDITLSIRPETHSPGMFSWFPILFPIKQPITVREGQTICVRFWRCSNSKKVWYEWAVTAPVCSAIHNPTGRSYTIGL
T1 sequence (Q9BQA1 whole entry, chain 2 of 2): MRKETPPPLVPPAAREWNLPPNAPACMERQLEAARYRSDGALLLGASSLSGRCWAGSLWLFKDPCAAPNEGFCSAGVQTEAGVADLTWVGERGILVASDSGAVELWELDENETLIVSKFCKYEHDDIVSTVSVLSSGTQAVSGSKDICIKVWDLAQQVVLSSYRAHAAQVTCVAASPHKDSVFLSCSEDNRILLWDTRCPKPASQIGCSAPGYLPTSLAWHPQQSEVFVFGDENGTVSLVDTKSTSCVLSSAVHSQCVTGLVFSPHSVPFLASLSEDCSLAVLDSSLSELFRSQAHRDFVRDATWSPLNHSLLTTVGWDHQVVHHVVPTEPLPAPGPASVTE

binding result: binds
B1: fluorescently labeled SRVVPGQFDDADSSD RioK1 sequence (peptide)
peptide: SRVVPGQFDDADSSD
modifications: not fully specified; also: FITC label, position not given here
notes: also called S1; source: synthetic peptide
